Data from US20130344073A1.

Key:
human MASP-1 (human) = human MASP-1 (human) (UniProt P48740); experiment: cell-based or functional assay
human MASP-2 (human) = human MASP-2 (human) (UniProt O00187); experiment: cell-based or functional assay
Sequence of human MASP-2 (human) (O00187 16-686): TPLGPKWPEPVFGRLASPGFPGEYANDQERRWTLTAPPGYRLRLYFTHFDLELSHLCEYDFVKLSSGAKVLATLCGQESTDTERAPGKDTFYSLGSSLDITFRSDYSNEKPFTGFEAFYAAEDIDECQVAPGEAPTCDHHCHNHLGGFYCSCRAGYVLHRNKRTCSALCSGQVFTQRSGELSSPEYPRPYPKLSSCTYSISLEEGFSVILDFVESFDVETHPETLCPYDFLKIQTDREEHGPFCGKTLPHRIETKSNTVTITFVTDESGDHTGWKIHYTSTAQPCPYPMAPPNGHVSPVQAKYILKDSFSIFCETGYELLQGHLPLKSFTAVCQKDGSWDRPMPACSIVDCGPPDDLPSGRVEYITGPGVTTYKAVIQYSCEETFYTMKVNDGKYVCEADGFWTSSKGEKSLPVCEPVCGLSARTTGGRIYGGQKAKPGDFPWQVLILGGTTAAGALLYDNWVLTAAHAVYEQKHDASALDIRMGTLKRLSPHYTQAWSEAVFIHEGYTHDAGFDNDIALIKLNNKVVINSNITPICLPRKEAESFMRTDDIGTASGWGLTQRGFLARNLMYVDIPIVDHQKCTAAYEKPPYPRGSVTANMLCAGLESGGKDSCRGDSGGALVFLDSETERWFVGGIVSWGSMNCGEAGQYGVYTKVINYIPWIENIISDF

Sequence of human MASP-1 (human) (P48740 other isoform, or with tags, fused parts or gaps): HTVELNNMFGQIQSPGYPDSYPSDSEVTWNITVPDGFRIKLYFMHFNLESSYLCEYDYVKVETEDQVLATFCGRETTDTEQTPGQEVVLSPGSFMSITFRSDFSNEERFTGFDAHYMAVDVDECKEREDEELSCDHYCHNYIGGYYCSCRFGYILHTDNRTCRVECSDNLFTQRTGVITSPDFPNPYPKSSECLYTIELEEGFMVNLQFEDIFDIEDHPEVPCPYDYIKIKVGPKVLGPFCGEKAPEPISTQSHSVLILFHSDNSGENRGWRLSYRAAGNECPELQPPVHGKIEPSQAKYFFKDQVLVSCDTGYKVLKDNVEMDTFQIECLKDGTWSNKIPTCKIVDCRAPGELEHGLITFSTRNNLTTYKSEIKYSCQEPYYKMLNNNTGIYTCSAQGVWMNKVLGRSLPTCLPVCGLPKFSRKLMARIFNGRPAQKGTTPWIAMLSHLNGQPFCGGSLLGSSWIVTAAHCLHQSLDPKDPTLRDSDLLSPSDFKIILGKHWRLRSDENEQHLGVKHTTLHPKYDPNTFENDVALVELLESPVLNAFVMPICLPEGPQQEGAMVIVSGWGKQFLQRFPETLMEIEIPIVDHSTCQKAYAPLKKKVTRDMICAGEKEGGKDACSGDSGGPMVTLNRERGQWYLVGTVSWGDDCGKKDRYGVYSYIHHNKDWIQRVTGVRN

C3b deposition from 1% normal human serum on mannan (IC50) (human MASP-1 (human)) | C3b deposition from 1% normal human serum on mannan (IC50) (human MASP-2 (human)) | Substance
27 nM |  | SGMI-1Fc, mature polypeptide fusion comprising SGMI-1, linker and human IgG1-Fc (Fc fusion)
 | 300 nM | SGMI-2Fc, mature polypeptide fusion comprising SGMI-2, linker and human IgG1-Fc (Fc fusion)
